Test results from patent US20190002506A1 (Dana-Farber, published 2019).
Blank lines part the entries; values can stand above or below the binder they belong to. Numbered stars: 1 amine (or outer) side, 2 acyl side, 3 side chain; on linkers, the order of the positions; unused ones are H or OH. Bridge positions count the residues as written; N and C are the ends. Square brackets hold non-standard residues; d marks the D form. Ends that are not written are not given here. * marks the point of attachment. warhead 3 = D-nipecotic acid acylated with acrylic acid, in place of L21, C=CC(=O)N1CCC[C@@H](C(=O)*)C1; Nip(3R) = O=C([C@@H]1CCCN([*:1])C1)[*:2]; warhead 1 = not defined here; S5 = C=CCCC[C@](C)(N)C(=O)O; Acryloyl = C=CC(=O)*

Assays:
[1] = target: T1, BFL-1ΔC C4S/C19S (human, UniProt Q16548 1-153); assay: covalent conjugation, 10:1 peptide:protein, reducing denaturing gel, Coomassie
T1 construct: range 1-153; Made by site-directed mutagenesis of BFL-1ΔC; also called His-BFL-1ΔC C4S/C19S; C55-only BFL-1; not shown: N-terminal His tag from the pET19b vector
T1 sequence (looked up): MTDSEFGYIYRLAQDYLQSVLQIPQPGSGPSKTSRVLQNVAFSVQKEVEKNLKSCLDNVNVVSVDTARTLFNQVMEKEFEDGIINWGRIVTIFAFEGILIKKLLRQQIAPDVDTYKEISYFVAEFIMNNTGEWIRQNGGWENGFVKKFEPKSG
Method: Processing for gel electrophoresis and Coomassie staining was performed as above.

[2] = target: T2, HA-BFL-1ΔC C4S/C19S (human, UniProt Q16548 1-153); assay: 293T lysates, 10 µM biotinylated peptide, anti-HA and anti-biotin western
T2 construct: range 1-153; also called expressed HA-BFL-1ΔC C4S/C19S; not shown: HA tag (pCMV plasmid)
T2 sequence (looked up): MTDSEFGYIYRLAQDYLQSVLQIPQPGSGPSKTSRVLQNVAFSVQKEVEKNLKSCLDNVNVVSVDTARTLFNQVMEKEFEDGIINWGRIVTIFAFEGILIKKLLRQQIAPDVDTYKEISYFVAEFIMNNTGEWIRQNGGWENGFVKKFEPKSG
Method: For lysate experiments, cells were trypsinized 24 hours post-transfection, washed with PBS, and lysed by incubation with 1% CHAPS lysis buffer (150 mM NaCl, 50 mM Tris pH 7.4, 100 mM DTT). Protein concentration of the soluble fraction was measured using a BCA kit according to manufacturer's instructions (Thermo Scientific). […] Samples were then boiled in LDS buffer and subjected to western analysis using 1:1000 dilutions of HA (Sigma-Aldrich, #12CA5) and biotin (Abcam, #53494) antibodies. […] After 24 h, cells were trypsinized, washed with PBS, lysed in 1% CHAPS buffer, and the supernatant collected for protein concentration determination by BCA kit. […] The mixtures were then subjected to HA or FLAG (Sigma-Aldrich, F7425) immunoprecipitation, followed by western analysis using 1:1000 dilutions of HA, FLAG, biotin, and BID (Santa Cruz sc-11423) antibodies. […] Cells were harvested and lysed as above, and incubated overnight with anti-HA agarose beads (Pierce). The beads were washed 3 times with lysis buffer, eluted by boiling in LDS buffer, and subjected to western analysis with HA and biotin antibodies.

[3] = target: T3, BFL-1ΔC (aa 1-153) (human, UniProt Q16548 1-153); assay: covalent conjugation with BFL-1 cysteine mutants, gel shift
T3 construct: also called wild-type BFL-1ΔC; BFL-1 WT
T3 sequence: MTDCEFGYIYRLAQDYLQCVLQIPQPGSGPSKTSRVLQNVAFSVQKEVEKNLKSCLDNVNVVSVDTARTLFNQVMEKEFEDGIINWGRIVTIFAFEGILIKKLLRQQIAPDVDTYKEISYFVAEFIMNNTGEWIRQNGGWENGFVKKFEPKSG

[4] = target: T4, BFL-1ΔC C4S/C19S/C55S (human, UniProt Q16548 1-153); assay: biolayer interferometry (Octet RED384): biotin-PEG-NOXA SAHB on super streptavidin tips, BFL-1ΔC construct in solution
T4 construct: range 1-153; Made by site-directed mutagenesis of BFL-1ΔC; also called BFL-1 with no cysteines; not shown: N-terminal His tag from the pET19b vector
T4 sequence (looked up): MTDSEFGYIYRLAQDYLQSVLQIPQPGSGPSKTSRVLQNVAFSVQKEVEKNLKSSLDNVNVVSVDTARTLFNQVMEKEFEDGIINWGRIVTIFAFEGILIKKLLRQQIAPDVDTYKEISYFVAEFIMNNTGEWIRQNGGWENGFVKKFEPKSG
Method: (§1) Excess streptavidin was quenched by incubation with 2 μg/mL biocytin. The tips were then washed with kinetics buffer and soaked in a serial dilution of BFL-1ΔC for 10 min to measure association rate, followed by a 15 min incubation in kinetics buffer to measure dissociation rate. Dissociation constants were calculated using Octet Data Analysis version 9.0.

[5] = target: T1, BFL-1ΔC C4S/C19S; assay: as above
Method: as §1

[6] = target: T3, BFL-1ΔC (aa 1-153); assay: as above
Method: as §1

[7] = target: T5, MCL-1 (Examples 1-4) (UniProt Q07820 170-327, limits assumed); assay: fluorescence polarization, FITC-labelled SAHB, protein serially diluted from 1 µM
T5 construct: also called MCL-I
T5 sequence (Q07820 170-327 limits assumed): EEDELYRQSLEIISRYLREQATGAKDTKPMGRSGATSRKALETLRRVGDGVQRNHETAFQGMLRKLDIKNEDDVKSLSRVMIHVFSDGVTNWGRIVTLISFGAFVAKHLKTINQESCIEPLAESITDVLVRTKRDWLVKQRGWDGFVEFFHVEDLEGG
Method: (§2) The solution-state equilibrium binding assay was used to determine binding affinities of the stapled peptides to the anti-apoptotic proteins. Proteins were serially diluted from 1 μM, then combined with FITC-labeled SAHB and polarization measured at 5 min on a microplate reader. We then calculated dissociation constants (KD) by nonlinear regression analysis of dose-response curves.

[8] = target: T6, Bfl-1 (Examples 1-4) (UniProt Q16548 1-153, limits assumed); assay: as above
T6 construct: also called 9×His-tagged Bfl-1
T6 sequence (looked up): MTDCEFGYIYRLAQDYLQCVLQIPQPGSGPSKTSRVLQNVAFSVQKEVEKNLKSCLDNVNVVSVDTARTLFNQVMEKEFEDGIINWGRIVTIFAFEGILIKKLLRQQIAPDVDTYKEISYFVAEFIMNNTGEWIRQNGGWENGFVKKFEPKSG
Method: as §2

binding result [1]: binds
Binder: [(3S)‑1‑acryloylpyrrolidine‑3‑carboxylic acid]IAQELR[S5]IGD[S5]FNAYYARR (staple 8-12, also called BIM SAHBA-WH, warhead 1) [BIM SAHBA bearing warhead 1 (of FIG. 12B)]

binding result [1]: binds
binding result [2]: binds
binding result [3]: binds
B1: BIM SAHBA-3 (peptide)
peptide: [Nip(3R)](Acryloyl)IAQELR[S5]IGD[S5]FNAYYARR
modifications: staple 8-12
notes: also called BIM SAHBA-WH with warhead 3; biotinylated BIM SAHBA-3

binding result [1]: binds
Binder: Acryloyl-IAQELR[S5]IGD[S5]FNAYYARR (staple 7-11, also called BIM SAHBA-WH, warhead 8) [BIM SAHBA bearing warhead 8 (of FIG. 12B)]

binding result [1]: binds
Binder: Acryloyl-EVESATQLR[S5]FGD[S5]LNFRQKLL (staple 10-14, also called NOXA SAHBA-WH, warhead 8) [NOXA SAHBA bearing warhead 8 (of FIG. 12B)]

binding result [1]: binds
Binder: [warhead 1]EVESATQLR[S5]FGD[S5]LNFRQKLL (staple 11-15; reading uncertain, also called NOXA SAHBA-WH, warhead 1) [NOXA SAHBA bearing warhead 1 (of FIG. 12B)]

Kd [4]: 118 nM
Kd [5]: 165 nM
Kd [6]: 122 nM
EC50 (read off the curve) [7]: ~200 nM
EC50 (read off the curve) [8]: ~100 nM
B2: NOXA SAHBA (peptide)
peptide: AELEVECATQLR[S5]FGD[S5]LNFRQKLL
modifications: staple 13-17; also: N-terminus PEG-biotin or FITC depending on assay
notes: Stapled NOXA BH3 peptide (aa 19-43) with native C25; also called WT NOXA SAHB; wild-type NOXA SAHBA

binding result [7]: no binding (tested: 1e-6 M)
EC50 (read off the curve) [8]: ~200 nM
B3: NOXA SAHBA F32Y (peptide)
peptide: AELEVECATQLR[S5]YGD[S5]LNFRQKLL
modifications: staple 13-17; also: FITC-labelled, site not given here
notes: member of the group m25; also called NOXA SAHB F32 variant with tyrosine

Kd [4]: 58.2 nM
Kd [5]: 47.2 nM
Kd [6]: 46.6 nM
B4: NOXA SAHBA C25S (peptide)
peptide: AELEVESATQLR[S5]FGD[S5]LNFRQKLL
modifications: staple 13-17; also: N-terminus PEG-biotin or FITC depending on assay
notes: Stapled NOXA BH3 peptide with C25S; also called NOXA C25S SAHB; NOXA C25 SAHB

binding result [1]: binds
binding result [2]: binds
binding result [3]: binds
B5: NOXA SAHBA-3 (peptide)
peptide: [warhead 3]EVESATQLR[S5]FGD[S5]LNFRQKLL
modifications: staple 11-15; also: biotinylated form carries C-terminal Lys-biotin
notes: also called NOXA SAHBA-WH with warhead 3; biotinylated NOXA SAHBA-3
